# Source: US20260241018A1
# Experiments:
# [1] = molecular target: dog 5T4 expressed on CHO-S cells (CHO-d5T4 cells) (dog); experiment: flow cytometry, CHO-d5T4 cells
# [2] = molecular target: monkey (Macaca fascicularis) 5T4 expressed on CHO-S cells (CHO-fas5T4 cells) (monkey (Macaca fascicularis)) (UniProt Q4R8Y9); experiment: flow cytometry, CHO-fas5T4 cells
# [3] = molecular target: human 5T4 expressed on CHO-S cells (CHO-h5T4 cells) (human) (UniProt Q13641); experiment: flow cytometry, CHO-h5T4 cells
# [4] = molecular target: mouse 5T4 expressed on CHO-S cells (CHO-m5T4 cells) (mouse) (UniProt Q9Z0L0); experiment: flow cytometry, CHO-m5T4 cells
# Chain of mouse 5T4 expressed on CHO-S cells (CHO-m5T4 cells) (mouse) (Q9Z0L0 32-361): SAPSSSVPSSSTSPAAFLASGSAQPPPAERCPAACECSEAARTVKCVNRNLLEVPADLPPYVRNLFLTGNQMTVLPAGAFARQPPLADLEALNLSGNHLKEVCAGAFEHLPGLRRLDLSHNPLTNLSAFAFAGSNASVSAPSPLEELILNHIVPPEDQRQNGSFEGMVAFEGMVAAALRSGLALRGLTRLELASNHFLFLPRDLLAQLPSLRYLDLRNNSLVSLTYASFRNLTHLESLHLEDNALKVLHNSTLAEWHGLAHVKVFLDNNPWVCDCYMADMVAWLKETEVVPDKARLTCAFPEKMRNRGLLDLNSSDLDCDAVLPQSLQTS
# Chain of monkey (Macaca fascicularis) 5T4 expressed on CHO-S cells (CHO-fas5T4 cells) (monkey (Macaca fascicularis)) (Q4R8Y9 35-355): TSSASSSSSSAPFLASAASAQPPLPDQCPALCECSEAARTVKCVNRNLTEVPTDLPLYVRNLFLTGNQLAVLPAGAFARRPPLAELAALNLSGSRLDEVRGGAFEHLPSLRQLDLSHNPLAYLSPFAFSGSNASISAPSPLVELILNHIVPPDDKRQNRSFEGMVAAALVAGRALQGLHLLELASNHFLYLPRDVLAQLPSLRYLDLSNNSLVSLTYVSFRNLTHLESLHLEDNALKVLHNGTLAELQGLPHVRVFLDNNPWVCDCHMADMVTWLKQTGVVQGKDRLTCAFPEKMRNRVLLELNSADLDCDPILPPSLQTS
# Chain of dog 5T4 expressed on CHO-S cells (CHO-d5T4 cells) (dog) (chain, as listed by the source limits assumed): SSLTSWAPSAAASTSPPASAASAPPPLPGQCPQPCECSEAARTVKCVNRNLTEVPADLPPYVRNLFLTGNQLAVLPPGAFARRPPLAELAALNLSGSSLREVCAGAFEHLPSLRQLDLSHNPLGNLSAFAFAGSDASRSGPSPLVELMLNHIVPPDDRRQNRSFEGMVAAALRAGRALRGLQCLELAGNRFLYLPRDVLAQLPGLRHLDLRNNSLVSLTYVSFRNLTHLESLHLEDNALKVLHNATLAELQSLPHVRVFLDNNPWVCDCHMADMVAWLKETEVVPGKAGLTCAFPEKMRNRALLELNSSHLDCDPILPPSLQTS
# Chain of human 5T4 expressed on CHO-S cells (CHO-h5T4 cells) (human) (Q13641 32-355): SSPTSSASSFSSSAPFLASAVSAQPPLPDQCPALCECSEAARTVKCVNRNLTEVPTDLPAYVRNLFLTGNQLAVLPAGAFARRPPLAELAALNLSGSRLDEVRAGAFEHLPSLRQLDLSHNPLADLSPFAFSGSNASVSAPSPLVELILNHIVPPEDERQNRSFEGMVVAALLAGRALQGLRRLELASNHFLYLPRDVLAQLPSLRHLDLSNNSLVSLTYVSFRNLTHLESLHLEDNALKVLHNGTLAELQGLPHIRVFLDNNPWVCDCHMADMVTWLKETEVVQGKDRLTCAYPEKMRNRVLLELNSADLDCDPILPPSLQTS
Substance,Percentage of Positive Cells [1] [%],Percentage of Positive Cells [2] [%],Percentage of Positive Cells [3] [%],Percentage of Positive Cells [4] [%]
NC,1,1.3,1,0.7
NC + secondary antibody,0.2,1.6,2,0.2
